{
  "source": "the DeepSol protein solubility set",
  "data": [
    {"assay": "soluble on expression in E. coli; label from the status in PepcDB or PDB records", "values": [
      {"sequence": "MSGTKVPSLPKGKEKPCVVTFATQSDRSNEPPPQPRVRKVTTIINTLGVVVRNTTTEIGVWVFTSCVEVSFPRSNSPIFSNFTLGTWMIVGLYPDATVASCSPWPLILKAYEMSVSYGTVFMKRKASELCHEKTVLYSEVVVPLVNPYSNMSYFERDPHLTAELYMIPGFGRVLGSSAYRQYLEDNRDNVSFIVQYCGGSLRGCSWIMSVVDGKAQTDGEFSDKDLREIAEFIRERHNKENESPPLPSNSIARHAGFVTEVFPQKNYLYCWSPQVSLEADHTAKFPQPPKHREVDSPMLSPLVGQWIQFDVQSKDLDKYMSTRSGYRLSIQEYLPINSPCGVGVVQCGKIVRVMISCILVKSTDHPMLFELQMFGPVIDKKSSLISGAFMQIVLEKTSSRIRRMSGVCWRVIYSLIVSGAENMVENSQSVRIEAISQRDAMETSHIIPIEKRTITNNTGVTTLKYQQPHQNPHYQEQRRDYYMGNNIQIQTAYNSTQLRKYQPKPKKFSSYTGESLEGHALVEKIMAHAKTGILWFFDNYNSSVHFIFDDFELNVGDYAYVKLIQKKEETAHLQFRWKWISGTKKLSPFNCRIDLFQLFIEEQVSYKSKDMLNRNTYTSKNFPIIFDADGIIKNPIPGAIYCVVILRKKIQVTQTESPTHKYQWIIDSAQSNPFIITEYYNPHNAFNRSFIASKQFSSSAALSTDSKKGSSGSEKSSTSPPLKSLTPPSDE", "soluble on expression in E. coli": "not soluble"},
      {"sequence": "MANPKLPGISESEQALLYAKLNEYNRGRASFKEAGVYLVVLPRPGKPNYSLWLYSPLPEKQSILYIHDLSPDINESLRIASTMFYYSRRCLILMDYNEKRMQSNGDDLIFFGKYRGHFLHEILKVDPAYLSWIAYKFTPKIPKQERFVKIAQAYHSVHLDVMLRKSKEVRRKSRYLGEVNEKLTDLKLKVMRVRLEDDPYKTRVYGTTPQFFVKQILTLNDASGNLVTMSIPSKTPSTVSCTLSGIEHEYRPGEIIYVASARVSRLFESYGSKYTRLSNVKLAIVNAWSSRL", "soluble on expression in E. coli": "not soluble"},
      {"sequence": "MSLKIERLNIIVTCPGRNFVTVKIVTDEGVHGLGDATLNGRELAVRAYLEDHVFPCLIGRDPRDIEDIWQYLYRGAYWRRGPVTMTAIAAIDMALWDIKSKLAGMPVYQLLGGKSREGLMVYGHANGRDHDEAIDAAHRHIAAGYRAIRVQSGVPGLAKVYGVGKTAGAYEPAEKGLPPEEPWDTALYLRHTPELFRKVRDALGDAPHLLHDAHHRLTPIEAARLGRDLEPYRLFWLEDATPAENQDAFRLIRSHTTTTLAVGEVFNSIWDCKDLIRDQLIDYIRATIVHAGGITHVRRIADYAAMYQVRTGFHGATDLSPVCMAAAVNFGLWAPNFGIQELMPHTALTDEVFPHNYRFDDGYLVMDDVPGLGVDIDETLAANYPYERAYLPVARLRDGSMWNWEGHHHHHH", "soluble on expression in E. coli": "not soluble"},
      {"sequence": "MGSDKIHHHHHHMLKIGPIEMKNQVVLAPMAGVCNPAFRLIAKEFGAGLVCAEMVSDKAILHKNEKSLSMLYVDEREKPLSLQIFGGEKETLVEAAKFVDKNTNADIIDINMGCPVPKITKCDAGARWLLDPNKIYDMVSAVVDEVDKPVTVKMRIGWDEEHIYAVENAQAVERAGGAAVAVHGRTRVQMYEGTADWNIIREVKQAVGIPVIGNGDVKTPQDAKRMLDEIGVDGVMIGRAALGNPWMLYRTIHYLETGELLPDPTPREKMDVCMIHLDRLIKLKGENVAVREMRKHAAWYLKGLRGNGKIRDQINQFETREDVSSTLYAYIEELEAKMAEKSASVV", "soluble on expression in E. coli": "not soluble"},
      {"sequence": "MSLRFIDKLYQANLGKLTAGISPAALGTAYYSWFAQLLQSPGSMLRLAYYPLLHANDYLSNLFKYDKPRDGKDVRFHTENWSYYPWRLWAEQFLQFEDWCLQASSKVPGIPLHVKRTVTFSTRQILDALSPSNFVLTNPDLLQETIRSNGQNLIRGTELAFQDFVEKITGSPPAGVENFIPGKQVAVTEGKVVYSNHLIELIQYTPQTEKVYKEGHHHHHH", "soluble on expression in E. coli": "soluble"},
      {"sequence": "MNEDMEFFNRFSHMYLHGFKNLSDMFAEPATEHGITLDEFYILYDIAEAKGKIRLMDIAESHGVTRSAISRLIGRLLRKDYLYQEAEDHDRRNKVLKLTPEGARIEHEVFTELIQRNREWRQSFSLAKQYQTLNLVEEFMDKFVNEDASKQTKKATYADTDLKRAEA", "soluble on expression in E. coli": "not soluble"},
      {"sequence": "MSQKRQTKFQNGKSKTSENSSAKREKGMVVNSKEISDAVGQSKFVLENLRHYTVHPNLAQYYKPLKATALQKFLAQNRKNTSFMLKVTQYDQDKTLLIMTNNPPPCSITQQDKESASKYFSKELLLKVMESHHQHKPTENLWLPRMPQKKKLRSKLKPIFPLILSDDPTSKREQWFRFSTDNDFKSEGKYSKVYALRTQKKMYPQLTFAPVHERDMRKDASKKSASERPISKVIREPLTLASLLEDMPTRTAPGESAFRNGRAPQWIIKKATVIG", "soluble on expression in E. coli": "soluble"},
      {"sequence": "MDDVLDRIMGSAPSQSGSSLNRTPKRDHRSNPDMHEPSSKRSAPMFTTPKSATPIGRDSFATLDTLNVQMNMFTMDIKDMPHKLQRLQVDVIICSSNGKQINVNLGVLAAKGDVNSHNRRLAQFFIMRAVHDKLPEKFSGKSHHFLAYDCAATLYVPEGVYTGDAEEQVTLKIDDFPKDEWKIVSKLSRRKDDSYLVTLKPAGFVHTQGEHARAEANRMELTRCVEIITSQMLNNEDYYQFANCPNREAVAVDEVVTAEASPEIHVEVTVAAVLIQEIIVEVTATEVERYRDESRGCRDMNDSRRDSSNGVDYSPSDAAEVEKALGERGSTKRFIEDALKGLDVECTRLKGNLIRVCSIAENNAENTSFMMKGDKGEQEITVVQYFQLQYNIKLKHSRLPLVVSKRFKHESFFPMELLQIAPGQRIKVNKMSPTVQSSMTGMNASMPEQHVKLVQNILIDNLKLKQSKYMDAFGIRLMSTKPLQLPAKLLPPAQIKFKNQTYMPEMSRPAFRTQDKFVQPAHIGRIGVVVFDNCIQMRQAESFCDNLAAICRDNGIKIDQDSRDWTICEINSSDAAGIQNRMRKWADDKVDILFAITREKKPDVHDILKYYEESIGLQTIQVCQQTVDKMMGGGGGRQTIDNVMRKFNLKCGGTNFFDEIPSSVRGRAVCSNSETLSKKLFEHVQFIGFEISHGAARTLFDRSRSQLDGEPSVVGVSYSLTNSTQLGGFTYLQTQKEYKLQKLGEVFPKCVQSYKEHSRRLPTRIVIYRVGAGEGDFKRVKEEIEEIRGTFDKIQPGYRPHLVVVIAQIASHARVFPSNITGRKAMEQNVPSGTCVDNVPTSYGYDEFILSSRTPLIGTVRPCKYTILINDANWSKNEIMHLTYFRAFGHQVSYKPPSVPDVLYAAENLAKRGRNNYKIHQRHVNLQAVENSIIGDHSELINEDMREELAAAIVDHMSVAMNGMTISKRNFWA", "soluble on expression in E. coli": "not soluble"},
      {"sequence": "TIKRMECFDISHTMGSQTVASCVVFDENGPLKSDYRRFNIEGITGGDDYAGMEQALVKRYDKPLPIEKIPDIIFIDGGKGQLNRALQVFEKLTVAWDKHKPLLIGVAKGAERKAGLETLIIGRLKKEIHLPIDSPALHLIQHIRDESHHHAISGHRKKRQKA", "soluble on expression in E. coli": "not soluble"},
      {"sequence": "GMPIIIDKDLPARKVLQEENIFVMTKERAETQDIRALKIAILNLMPTKQETEAQLLRLIGNTPLQLDVHLLHMESHLSRNVAQEHLTSFYKTFRDIENEKFDGLIITGAPVETLSFEEVDYWEELKRIMEYSKTNVTSTLHICWGAQAGLYHHYGVQKYPLKEKMFGVFEHEVREQHVKLLQGFDELFFAPHSRHTEVRESDIREVKELTLLANSEEAGVHLVIGQEGRQVFALGHSEYSCDTLKQEYERDRDKGLNIDVPKNYFKHDNPNEKPLVRWRSHGNLLFSNWLNYYVYQETPYVL", "soluble on expression in E. coli": "soluble"},
      {"sequence": "MSLKIWGRKNSSNVRKALWIAHELGLDFESIDAGGAFGVVNEPHYRARNPNGLVPMLEDGDLTLWESNTIVRYLCAEYGTEQGWYLADPRQRALADKWMDWTTSSFATPFRPLFWGLLRTPEDQRDWVAINAAHKQCAQLLAIADETLASQPYLSGDQIGMGDIPLGSFIYAWFELPIERPDMYHLQAWYERLKQRPAYQAAVMTALTEGHHHHHH", "soluble on expression in E. coli": "soluble"},
      {"sequence": "SNAMLGGIEAGGTKFVCAVGREDGTIIDRIEFPTKMPDETIEKVIQYFSQFSLQAIGIGSFGPVDNDKTSQTYGTITATPKAGWRHYPFLQTVKNEMKIPVGFSTDVNAAALGEFLFGEAKGLDSCLYITIGTGIGAGAIVEGRLLQGLSHPEMGHIYIRRHPDDVYQGKCPYHGDCFEGLASGPAIEARWGKKAADLSDIAQVWELEGYYIAQALAQYILILAPKKIILGGGVMQQKQVFSYIYQYVPKIMNSYLDFSELSDDISDYIVPPRLGSNAGIIGTLVLAHQALQAEAASGEVRS", "soluble on expression in E. coli": "soluble"},
      {"sequence": "MITLTGHTLTIEEMKRLLLEGEGVTACPTSMQKVAECREVVEKIVENGKVVYGITTGFGKFSDVLIQKDDVKALQHNLIQSHACGIGDPFPEEVSRGMLILRANTMLKGVSGVRPLVVNMLLEFVNRKIHPVVPQQGSLGASGDLAPLSHLALILLGEGEVFYKGKRVHAMVALTEEGLEPIELEAKEGLALINGTQAMTAQGVLSYIEAEATAYQAELIASMTIEGLQGIIDAFDENVHKARGYKEQVEVASRIRDILHDSKLTTKQGELRVQDAYSLRCIPQVHGASWQVLNYVKEKLEIEMNAATDNPLIFDGGEKVISGGNFHGQPIAFAMDFLKVGMAELANISERRIERLVNPQLNDLPPFLSPEPGLQSGAMIMQYAAASLVSENKTLAHPASVDSIPSSANQEDHVSMGTIASRHAHQIIQNVRRVLSIEMICAMQAAEYRGIENMSTVTKSFYHQGRQQVPSITNDRIFSTDIENITHWLKTNYSIKERLDVNAAL", "soluble on expression in E. coli": "not soluble"},
      {"sequence": "MGSDKIHHHHHHMTLTSDSWLTLIVSLPSASATARMRIWRAVKALGCAALRDGAYLLPAQAEQAAQLQMLADEALQEGGQAWLLQVQALDLAEQATFQALFDRTADYTPWLEELAQARQTLSALSAAELQRTQRKHARAYEVIRKIDFFPGETSIRADAQWRDFANALESMQSPGEPQPMAGRIARRDRMQYQGRVWATRRHLWVDRVASAWLIQRFIDPHARFLWLNTAADCPSDALGFDFDGATFSHVGERVTFEVLLASFGLEDDRGLSRLGAMVHALDVGGATTPEASGFEAVLAGARKRWPDDDALLVDIGGVLDSLHAHFSSSRKT", "soluble on expression in E. coli": "not soluble"},
      {"sequence": "MNDGDVSRQIQQMVRFIRQEAEEKANEISVSAEEEFNIEKLQLVEAEKKKIRQDYEKKEKQADVRKKIDYSMQLNASRIKVLQAQDDIVNAMKDQAAKDLLNVSRDEYAYKQLLKDLIVQCLLRLKEPSVLLRCREEDLGLVEAVLDDAKEEYAGKAKVHAPEVAVDTKIFLPPPPKSNDPHGLHCSGGVVLASRDGKIVCENTLDARLDVAFRMKLPVIRKSLFGQVTA", "soluble on expression in E. coli": "soluble"},
      {"sequence": "MSDTLRPYKNLFPGIGQRVMIDTSSVVIGDVRLADDVGIWPLVVIRGDVNYVAIGARTNIQDGSVLHVTHKSSSNPHGNPLIIGEDVTVGHKVMLHGCTIGNRVLVGMGSIVLDGAIIEDDVMIGAGSLVPQHKRLESGYLYLGSPVKQIRPLSDAERSGLQYSANNYVKWKDDYLSQDNHIQP", "soluble on expression in E. coli": "not soluble"},
      {"sequence": "MHLRTYYPTVVLSDIHLGTQHSKTEEVTHFLKSINCDRLILNGDIIDGWHLQKSGLGKWKAKHTDFFKVIMKMMENFGTQVIYVRGNHDDFLDNLAPLNFYNIRIVKDCIYESHGRRYYVTHGDIFDTVTTQMKWLAKLGDTGYTFLLWLNKVYNLRRMKQGKPYYSLSQSIKNRVKTAVSYISDFEKELVGLARAKKCDGVICGHIHHPANTFYEDIHYLNSGDWVETLSALTEDEDGNWTIRYFDSGLLKEDNHKEKQTISITIAS", "soluble on expression in E. coli": "not soluble"}
    ]}
  ]
}
